Patent EP4748847A1, “PEPTIDE COMPLEX HAVING VEGFR -2 AGONIST ACTIVITY” (Peptidream Inc, priority 2023, dated 2025)
Where two headings read alike, the source gives them in different places. *1 amine or outer side, *2 acyl side, *3 side chain or, on linkers, in order; H or OH if unused. Bridges are numbered along the chain shown (N, C = ends). Primed or numbered codes have the meaning given here. Where no end group is shown, it is not given here. [ ]: non-standard residue; d: D form. CO(CH2CH2O)9CH2CH2CO = O=C(CCOCCOCCOCCOCCOCCOCCOCCOCCOCCC(=O)[*:2])[*:1]; hTyr = N[C@@H](CCc1ccc(O)cc1)C(=O)O; Cha = N[C@@H](CC1CCCCC1)C(=O)O; Chg = N[C@H](C(=O)O)C1CCCCC1; Tle = CC(C)(C)[C@H](N)C(=O)O; Ahp′ = not defined here; Atb = not defined here

Key:
Test in all cases: cell-based or functional assay
[1] = biological target: T1, VEGFR-2 (human, UniProt P35968 20-1356)
T1 sequence (P35968 20-1356): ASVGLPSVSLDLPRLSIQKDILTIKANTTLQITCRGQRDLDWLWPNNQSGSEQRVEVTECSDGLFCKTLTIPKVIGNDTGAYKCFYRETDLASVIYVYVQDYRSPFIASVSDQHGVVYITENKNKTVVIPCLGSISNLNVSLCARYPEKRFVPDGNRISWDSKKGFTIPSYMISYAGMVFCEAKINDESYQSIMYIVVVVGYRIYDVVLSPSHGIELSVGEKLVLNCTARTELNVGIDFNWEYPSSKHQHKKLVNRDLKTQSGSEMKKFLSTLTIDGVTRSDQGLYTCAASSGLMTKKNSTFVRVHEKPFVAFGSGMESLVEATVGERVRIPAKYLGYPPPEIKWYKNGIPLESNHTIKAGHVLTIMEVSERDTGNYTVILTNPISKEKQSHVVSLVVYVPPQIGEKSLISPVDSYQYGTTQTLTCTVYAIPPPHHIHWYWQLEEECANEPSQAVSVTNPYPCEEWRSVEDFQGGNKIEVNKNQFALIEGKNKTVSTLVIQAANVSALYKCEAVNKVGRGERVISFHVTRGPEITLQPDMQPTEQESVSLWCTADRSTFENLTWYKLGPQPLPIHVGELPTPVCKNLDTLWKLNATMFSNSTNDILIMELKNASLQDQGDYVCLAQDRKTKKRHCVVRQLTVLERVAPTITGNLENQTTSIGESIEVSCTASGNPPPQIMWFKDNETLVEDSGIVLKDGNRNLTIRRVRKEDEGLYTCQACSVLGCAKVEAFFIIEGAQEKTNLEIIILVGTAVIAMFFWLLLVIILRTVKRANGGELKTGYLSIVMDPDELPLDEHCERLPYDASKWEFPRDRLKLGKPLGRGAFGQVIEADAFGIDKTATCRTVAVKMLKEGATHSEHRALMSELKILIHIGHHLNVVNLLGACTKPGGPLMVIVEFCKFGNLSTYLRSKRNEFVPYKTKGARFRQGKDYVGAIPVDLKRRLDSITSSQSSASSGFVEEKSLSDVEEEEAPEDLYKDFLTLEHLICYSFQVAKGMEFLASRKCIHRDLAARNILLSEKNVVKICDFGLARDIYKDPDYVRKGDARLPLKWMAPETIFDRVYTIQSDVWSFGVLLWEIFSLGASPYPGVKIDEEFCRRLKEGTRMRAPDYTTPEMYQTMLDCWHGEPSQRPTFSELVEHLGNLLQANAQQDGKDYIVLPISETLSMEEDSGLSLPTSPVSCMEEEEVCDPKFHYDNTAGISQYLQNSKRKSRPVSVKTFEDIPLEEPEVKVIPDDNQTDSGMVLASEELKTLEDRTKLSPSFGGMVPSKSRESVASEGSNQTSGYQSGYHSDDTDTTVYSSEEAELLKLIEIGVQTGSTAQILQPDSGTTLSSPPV

[2] = biological target: T1, VEGFR-2; remark: listed apart in the source
[3] = biological target: T1, VEGFR-2; remark: listed apart in the source

Binder | pERK Assay Results (AlphaLISA p-Erk1/2, HUVEC) [1] | proliferation (HUVEC, CellTiter-Glo) [2] | pERK Assay Results (AlphaLISA p-Erk1/2, HUVEC) [3]
{CH2CO}-WW[Tle]DVKDDLY[F4G]VDCG-NH2 (thioether N-14; also: homodimer: Lys6 joined to Lys6 of second copy by cPEG17c (Linker Structure No. 4)) [Peptide complex Dimer Structure No. 43] | ≥ 50 % activity at 5 nM | ≥ 50 % activity at 5 nM | 
{CH2CO}-WW[Tle]DVKDD[Atb]YF[hTyr]DCG-NH2 (thioether N-14; reading uncertain; also: homodimer: Lys6 joined to Lys6 of second copy by OCOPEG13OCO (Linker Structure No. 5)) [Peptide complex Dimer Structure No. 49] | ≥ 50 % activity at 20 nM | ≥ 50 % activity at 5 nM | 
{CH2CO}-WW[Tle]DVKDDLY[F4G]VDCG-NH2 (thioether N-14; also: homodimer: Lys6 joined to Lys6 of second copy by OCOPEG17OCO (Linker Structure No. 6)) [Peptide complex Dimer Structure No. 51] | ≥ 50 % activity at 5 nM | ≥ 50 % activity at 5 nM | 
{CH2CO}-WW[Tle]DVKNDLYF[hTyr]DCG-NH2 (thioether N-14; also: homodimer: Lys6 joined to Lys6 of second copy by cPEG17c (Linker Structure No. 4)) [Peptide complex Dimer Structure No. 47] | ≥ 50 % activity at 20 nM | ≥ 50 % activity at 1.25 nM | 
{CH2CO}-WW[Tle]DVKDD[Atb]YF[hTyr]DCG-NH2 (thioether N-14; reading uncertain; also: homodimer: Lys6 joined to Lys6 of second copy by OCOPEG17OCO (Linker Structure No. 6)) [Peptide complex Dimer Structure No. 52] | ≥ 50 % activity at 5 nM | ≥ 50 % activity at 5 nM | 
{CH2CO}-WW[Tle]DVKDDLY[F4G][hTyr]DCG-NH2 (thioether N-14; also: homodimer: Lys6 joined to Lys6 of second copy by cPEG17c (Linker Structure No. 4)) [Peptide complex Dimer Structure No. 45] | ≥ 50 % activity at 20 nM | ≥ 50 % activity at 5 nM | 
{CH2CO}-WW[Tle]DVKDDLYF[Chg]DCG-NH2 (thioether N-14; not fully specified (residue 6); also: homodimer: Lys6 joined to Lys6 of second copy by cPEG17c (Linker Structure No. 4)) [Peptide complex Dimer Structure No. 31] | ≥ 50 % activity at 10 nM | ≥ 50 % activity at 10 nM | 
{CH2CO}-WWVDVK(CO(CH2CH2O)9CH2CH2CO)DDLYFVDCG-NH2 (thioether N-14; also: dimer: Lys6 joined to Lys6 of second copy by cPEG9c) [Peptide complex Dimer Structure No. 13] |  | < 50 % activity at 100 nM | ≥ 50 % activity at 10 nM
{CH2CO}-WW[Tle]D[alT]KDDLYF[hTyr]DCG-NH2 (thioether N-14; not fully specified (residue 6); also: homodimer: Lys6 joined to Lys6 of second copy by cPEG17c (Linker Structure No. 4)) [Peptide complex Dimer Structure No. 27] | ≥ 50 % activity at 10 nM | ≥ 50 % activity at 10 nM | 
{CH2CO}-[W7N]W[Tle]DVKDDLYF[hTyr]DCG-NH2 (thioether N-14; also: homodimer: Lys6 joined to Lys6 of second copy by cPEG17c (Linker Structure No. 4)) [Peptide complex Dimer Structure No. 46] | ≥ 50 % activity at 20 nM | ≥ 50 % activity at 1.25 nM | 
{CH2CO}-WW[Tle]DVKDDNYF[hTyr]DCG-NH2 (thioether N-14; not fully specified (residues 5, 6); also: dimer joined at Lys6 side chains by cPEG17c) [Peptide complex Dimer Structure No. 29] | ≥ 50 % activity at 10 nM | ≥ 50 % activity at 10 nM | 
{CH2CO}-WWVDV[Cha]DDLYFVDCG (thioether N-14; also: dimer: C-terminus joined to second copy by PEG12c-K-PEG12c) [Peptide complex Dimer Structure No. 5] |  | < 50 % activity at 100 nM | ≥ 50 % activity at 10 nM

Second part, the binder after the results:

pERK Assay Results (AlphaLISA p-Erk1/2, HUVEC) [1] | proliferation (HUVEC, CellTiter-Glo) [2] | pERK Assay Results (AlphaLISA p-Erk1/2, HUVEC) [3] | Binder
≥ 50 % activity at 5 nM | ≥ 50 % activity at 5 nM |  | {CH2CO}-WW[Tle]DVKDD[Atb]Y[F4G][hTyr]DCG-NH2 (thioether N-14; reading uncertain; also: dimer: Lys6 joined to Lys6 of second copy by OCOPEG17OCO (Linker Structure No. 6)) [Peptide complex Dimer Structure No. 53]
 | < 50 % activity at 100 nM | ≥ 50 % activity at 10 nM | {CH2CO}-WWVDVKDDLYFVDCG-NH2 (thioether N-14; not fully specified (residue 6); also: homodimer: Lys6 joined to Lys6 of second copy by cPEG13c (Linker Structure No. 3)) [Peptide complex Dimer Structure No. 14]
 | ≥ 50 % activity at 10 nM | ≥ 50 % activity at 10 nM | {CH2CO}-WW[Chg]DVKDDLYF[hTyr]DCG-NH2 (thioether N-14; not fully specified (residue 6); also: homodimer: Lys6 joined to Lys6 of second copy by cPEG17c (Linker Structure No. 4)) [Peptide complex Dimer Structure No. 25]
≥ 50 % activity at 10 nM | ≥ 50 % activity at 10 nM |  | {CH2CO}-WW[Tle]DVKDDLYF[hTyr]SCG-NH2 (thioether N-14; also: homodimer: Lys6 joined to Lys6 of second copy by cPEG17c (Linker Structure No. 4)) [Peptide complex Dimer Structure No. 33]
 | < 50 % activity at 100 nM | ≥ 50 % activity at 100 nM | {CH2CO}-WWVDV[Ahp′]DDLYFVDCG (thioether N-14; reading uncertain; also: dimer joined at Gly15 C-termini by PEG12c-K-PEG12c) [Peptide complex Dimer Structure No. 2]
≥ 50 % activity at 20 nM | ≥ 50 % activity at 1.25 nM |  | {CH2CO}-WWVDVKDDLYFVDCG-NH2 (thioether N-14; also: homodimer: Lys6 joined to Lys6 of second copy by cPEG17c (Linker Structure No. 4)) [Peptide complex Dimer Structure No. 42]
